# Legend:
# BG505 G471A [1] = biological target: BG505 G471A
# BG505 K121A [2] = biological target: BG505 K121A
# BG505 L179A [3] = biological target: BG505 L179A
# BG505 L369A [4] = biological target: BG505 L369A
# BG505 N332T [5] = biological target: BG505 N332T
# BG505 N363A [6] = biological target: BG505 N363A
# BG505 R476A [7] = biological target: BG505 R476A
# BG505 S364A [8] = biological target: BG505 S364A
# BG505 S365A [9] = biological target: BG505 S365A
# BG505 T372A [10] = biological target: BG505 T372A
# BG505 T373A [11] = biological target: BG505 T373A
# JR-CSF G471A [12] = biological target: JR-CSF G471A
# JR-CSF K207A [13] = biological target: JR-CSF K207A
# JR-CSF N276A [14] = biological target: JR-CSF N276A
# JR-CSF N283A [15] = biological target: JR-CSF N283A
# JR-CSF N362A [16] = biological target: JR-CSF N362A
# JR-CSF R476A [17] = biological target: JR-CSF R476A
# JR-CSF S199A [18] = biological target: JR-CSF S199A
# JR-CSF S365A [19] = biological target: JR-CSF S365A
# JR-CSF T198A [20] = biological target: JR-CSF T198A
# [21] = biological target: BG505 gp120 captured from lysed virions (HIV isolate BG505); assay: ELISA on BG505 gp120 in PBS pH 7.4
# BG505 E370A = assay: ELISA, gp120 captured from lysed virions
# BG505 G366A = assay: ELISA, gp120 captured from lysed virions
# BG505 G367A = assay: ELISA, gp120 captured from lysed virions
# BG505 G471A [22] = assay: ELISA, gp120 captured from lysed virions
# BG505 K121A [23] = assay: ELISA, gp120 captured from lysed virions
# BG505 L179A [24] = assay: ELISA, gp120 captured from lysed virions
# BG505 L369A [25] = assay: ELISA, gp120 captured from lysed virions
# BG505 M475A = assay: ELISA, gp120 captured from lysed virions
# BG505 N197A = assay: ELISA, gp120 captured from lysed virions
# BG505 N283A = assay: ELISA, gp120 captured from lysed virions
# BG505 N332T [26] = assay: ELISA, gp120 captured from lysed virions
# BG505 N363A [27] = assay: ELISA, gp120 captured from lysed virions
# BG505 R476A [28] = assay: ELISA, gp120 captured from lysed virions
# BG505 S364A [29] = assay: ELISA, gp120 captured from lysed virions
# BG505 S365A [30] = assay: ELISA, gp120 captured from lysed virions
# BG505 T372A [31] = assay: ELISA, gp120 captured from lysed virions
# BG505 T373A [32] = assay: ELISA, gp120 captured from lysed virions
# BG505 V371A = assay: ELISA, gp120 captured from lysed virions
# [33] = biological target: BG505 gp120 captured from lysed virions (HIV isolate BG505); assay: ELISA, gp120 captured from lysed virions
# JR-CSF E370A = assay: ELISA, gp120 captured from lysed virions
# JR-CSF G366A = assay: ELISA, gp120 captured from lysed virions
# JR-CSF G471A [34] = assay: ELISA, gp120 captured from lysed virions
# JR-CSF G472A = assay: ELISA, gp120 captured from lysed virions
# JR-CSF G473A = assay: ELISA, gp120 captured from lysed virions
# JR-CSF K207A [35] = assay: ELISA, gp120 captured from lysed virions
# JR-CSF N262A = assay: ELISA, gp120 captured from lysed virions
# JR-CSF N276A [36] = assay: ELISA, gp120 captured from lysed virions
# JR-CSF N279A = assay: ELISA, gp120 captured from lysed virions
# JR-CSF N283A [37] = assay: ELISA, gp120 captured from lysed virions
# JR-CSF N362A [38] = assay: ELISA, gp120 captured from lysed virions
# JR-CSF R476A [39] = assay: ELISA, gp120 captured from lysed virions
# JR-CSF S199A [40] = assay: ELISA, gp120 captured from lysed virions
# JR-CSF S365A [41] = assay: ELISA, gp120 captured from lysed virions
# JR-CSF T198A [42] = assay: ELISA, gp120 captured from lysed virions
# JR-CSF T373A = assay: ELISA, gp120 captured from lysed virions
# JR-CSF V371A = assay: ELISA, gp120 captured from lysed virions
substance,measurement,setting,value
NC-Cow1 (antibody),"IC50, pseudovirus neutralization",BG505 G471A [1],0.013 µg/mL
same,"IC50, pseudovirus neutralization",BG505 K121A [2],0.029 µg/mL
same,"IC50, pseudovirus neutralization",BG505 L179A [3],0.018 µg/mL
same,"IC50, pseudovirus neutralization",BG505 L369A [4],0.015 µg/mL
same,"IC50, pseudovirus neutralization",BG505 N332T [5],0.018 µg/mL
same,"IC50, pseudovirus neutralization",BG505 N363A [6],0.013 µg/mL
same,"IC50, pseudovirus neutralization",BG505 R476A [7],0.012 µg/mL
same,"IC50, pseudovirus neutralization",BG505 S364A [8],0.014 µg/mL
same,"IC50, pseudovirus neutralization",BG505 S365A [9],0.015 µg/mL
same,"IC50, pseudovirus neutralization",BG505 T372A [10],0.028 µg/mL
same,"IC50, pseudovirus neutralization",BG505 T373A [11],0.016 µg/mL
same,"IC50, pseudovirus neutralization",JR-CSF G471A [12],50 µg/mL
same,"IC50, pseudovirus neutralization",JR-CSF K207A [13],1.8 µg/mL
same,"IC50, pseudovirus neutralization",JR-CSF N276A [14],1.76 µg/mL
same,"IC50, pseudovirus neutralization",JR-CSF N283A [15],6.94 µg/mL
same,"IC50, pseudovirus neutralization",JR-CSF N362A [16],0.496 µg/mL
same,"IC50, pseudovirus neutralization",JR-CSF R476A [17],> 50 µg/mL
same,"IC50, pseudovirus neutralization",JR-CSF S199A [18],0.404 µg/mL
same,"IC50, pseudovirus neutralization",JR-CSF S365A [19],0.129 µg/mL
same,"IC50, pseudovirus neutralization",JR-CSF T198A [20],2.98 µg/mL
same,EC50 (read off the curve),[21],0.1 µg/mL
same,EC50,BG505 E370A,0.11 µg/mL
same,EC50,BG505 G366A,0.13 µg/mL
same,EC50,BG505 G367A,1.34 µg/mL
same,EC50,BG505 G471A [22],0.05 µg/mL
same,EC50,BG505 K121A [23],0.04 µg/mL
same,EC50,BG505 L179A [24],0.05 µg/mL
same,EC50,BG505 L369A [25],0.24 µg/mL
same,EC50,BG505 M475A,0.08 µg/mL
same,EC50,BG505 N197A,0.04 µg/mL
same,EC50,BG505 N283A,0.1 µg/mL
same,EC50,BG505 N332T [26],0.05 µg/mL
same,EC50,BG505 N363A [27],0.09 µg/mL
same,EC50,BG505 R476A [28],0.07 µg/mL
same,EC50,BG505 S364A [29],0.14 µg/mL
same,EC50,BG505 S365A [30],0.07 µg/mL
same,EC50,BG505 T372A [31],0.07 µg/mL
same,EC50,BG505 T373A [32],0.12 µg/mL
same,EC50,BG505 V371A,0.24 µg/mL
same,EC50,[33],0.04 µg/mL
same,EC50,JR-CSF E370A,1.16 µg/mL
same,EC50,JR-CSF G366A,0.027 µg/mL
same,EC50,JR-CSF G471A [34],0.148 µg/mL
same,EC50,JR-CSF G472A,11.2 µg/mL
same,EC50,JR-CSF G473A,6.83 µg/mL
same,EC50,JR-CSF K207A [35],0.052 µg/mL
same,EC50,JR-CSF N262A,5.64 µg/mL
same,EC50,JR-CSF N276A [36],0.029 µg/mL
same,EC50,JR-CSF N279A,0.036 µg/mL
same,EC50,JR-CSF N283A [37],0.133 µg/mL
same,EC50,JR-CSF N362A [38],0.038 µg/mL
same,EC50,JR-CSF R476A [39],0.281 µg/mL
same,EC50,JR-CSF S199A [40],0.058 µg/mL
same,EC50,JR-CSF S365A [41],0.028 µg/mL
same,EC50,JR-CSF T198A [42],0.045 µg/mL
same,EC50,JR-CSF T373A,0.067 µg/mL
same,EC50,JR-CSF V371A,1.36 µg/mL

# Reference: patent publication US20200165324A1
